Where a chain is given by its changes, count along the chain named.
B1: CD8B617 (antibody, human IgG1, kappa)
heavy: not shown
light: DIQMTQSPLTLSVTIGQPASISCKSSQSLLDSDGETYLNWLLQRPGQSPKRLIYLVSKLDSGVPDRFTGSGSGTDFTLKISRVEAEDLGVYYCWQGTHFPLTFGGGTKLEIKRTVAAPSVFIFPPSDEQLKSGTASVVCLLNNFYPREAKVQWKVDNALQSGNSQESVTEQDSKDSTYSLSSTLTLSKADYEKHKVYACEVTHQGLSSPVTKSFNRGEC
notes: Mouse variable regions on human IgG1 / human kappa constant regions
B2: CD8B607 (antibody, human IgG1, kappa)
heavy: not shown
light: B1 light with S7T
notes: as for B1
B3: CD8B611 (antibody, human IgG1, kappa, V domains shown)
VH: EVQLQQSGAELVRPGASVNLSCTASGFNFKDDYMHWVKQRPEQGLEWIGWIDPENGDAAYASKFQGKATITADTSSNTAYLQLSSLTSEDTAVYYCITIFRSYWGQGTTLTVSS
VL: not shown
notes: as for B1
B4: CD8B575 (antibody, human IgG1, kappa, V domains shown)
VH: QVQLQQSGGGLVQPGGSLKLSCAASGFTFSNYYMSWARQTPEKRLEWVAYISNDGDATYYPDSVKGRFTISRDNAKNTLYLQMSSLKSEDTAMYYCTREDYYSDYWFASWGQGTTVTVSS
VL: DIVMTQSQKFMSTTIEDRVSITCKASQNVGTAVAWYQQKPGQSPKLLIYSTSNRYTGVPDRFTGSGSGTDFTLTISNIQSEDLADYFCQQYSSYPLTFGGGTKLEIKR
notes: Mouse variable regions on human IgG1 / human kappa constant regions, made in CHO cells; also called AF647-CD8B575
B5: CD8B612 (antibody, human IgG1, kappa)
heavy: not shown
light: DIVMTQTPLSLPVSLGDQASISCRSSQNIVHSNGNTYLEWYLQKPGQSPKLLIYRVSKRFSGVPDRFSGSGSGTDFTLKITRVEAEDLGVYYCFQGSHVPWTFGGGTKLEIKRTVAAPSVFIFPPSDEQLKSGTASVVCLLNNFYPREAKVQWKVDNALQSGNSQESVTEQDSKDSTYSLSSTLTLSKADYEKHKVYACEVTHQGLSSPVTKSFNRGEC
notes: as for B1
B6: CD8B622 (antibody, human IgG1, kappa)
heavy: not shown
light: B5 light
notes: Mouse variable regions on human IgG1 / human kappa constant regions; also called CD8B622.001
B7: CD8B623 (antibody, human IgG1, kappa)
heavy: not shown
light: B5 light with I2V
notes: as for B1
B8: CD8B613 (antibody, human IgG1, kappa)
heavy: not shown
light: B5 light with I2V, V3Q, T5I, T7S
notes: as for B1

target: T1, CAR with CD8α hinge as the spacer, expressed on Jurkat CAR-T cells; experiment: flow cytometry (iQue) on Jurkat CAR-T cells, A647 anti-human IgG Fc detection
T1 construct: domain: CD8α hinge; also called CD8α hinge expressed on the Jurkat CAR-T cells
T1 sequence (P01732 138-182): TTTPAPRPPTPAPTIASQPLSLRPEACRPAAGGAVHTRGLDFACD
Description: mAbs were 1:3 serially diluted ranging from 100 nM to 1.7 pM and were incubated with cell mixture containing Jurkat CAR-T cells (unstained), Jurkat cells (CTV dye stained) and Sup-T1 cells (CSFE dye stained) in assay media (RPMI 1640+10% HI FBS+Pen/strep) for 1 hr at 37° C. […] Cells were then washed and analyzed by iQue screener (Intellicyt®). ForeCyt software was used for data analysis. The ratio of geomean of AF647 fluorescent signal from sample over the isotype control antibody (Signal) was used for the dose-dependent plot (FIGS. 2A-2F).

Row | EC50 | Binder
1 | 23.7 nM | B1
2 | 24.7 nM | B2
3 | 21.6 nM | B3
4 | 32.6 nM | B4
5 | 2.9 nM | B5
6 | 37 nM | B6
7 | 7.8 nM | B7
8 | 1.9 nM | B8

target: T2, human CD8α on primary CD8+ T cells (human, UniProt P01732 22-235); experiment: flow cytometry on PBMC, 2 µg/mL mAb, positive cells among CD8+ T cells, Donor 1
T2 construct: Endogenous CD8 on T cells from PBMC; also called CD8+ primary T cells; human primary CD8+ cells
T2 sequence (P01732 22-235): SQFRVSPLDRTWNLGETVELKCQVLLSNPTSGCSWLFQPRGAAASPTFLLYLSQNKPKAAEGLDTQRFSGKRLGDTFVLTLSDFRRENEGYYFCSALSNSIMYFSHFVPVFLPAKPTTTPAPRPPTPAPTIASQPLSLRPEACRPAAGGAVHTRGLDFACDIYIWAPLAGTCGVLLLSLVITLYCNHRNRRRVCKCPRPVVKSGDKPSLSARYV
Description: (§1) Frozen PBMCs were thawed and resuspended in FACS buffer (PBS+2% FBS). Cells were then incubated with Fc block for 15 min at 4 C prior to incubation with 2 μg/mL of each CD8α hinge binders at room temperature for 45 min. […] After staining, cells were washed with FACS buffer twice and resuspended in 100 μl PBS containing DAPI for acquisition. Cells were first gated on FSC/SSC, followed by live cell gating (DAPI negative cells) followed by singlet gating. CD3 T cells were identified using FSC versus CD3 dot plot. Within the CD3 T cells, CD4 and CD8 T cells were gated. Naïve, Effector, EM and CM cells were identified within the CD8 T cells using CD45RA and CD27 dot plot. Within each of the cell types, the secondary only control was used to set the gates to identify the positive stained population. The percentage of positive cells in CD8+ T cell population with binding to CD8α hinge binders were quantified and summarized in Table 13.

Row | Binding in CD8+ cells (%) | Binder
9 | 88.5% | B1
10 | 87.5% | B2
11 | 88.8% | B3
12 | 84.4% | B4
13 | 71.6% | B5
14 | 63.1% | B6
15 | 65.3% | B7
16 | 73.8% | B8

target: T2, human CD8α on primary CD8+ T cells; experiment: flow cytometry on PBMC, 2 µg/mL mAb, positive cells among CD8+ T cells, Donor 2
Description: as §1

Row | Binding in CD8+ cells (%) | Binder
17 | 97.8% | B1
18 | 97.7% | B2
19 | 98.2% | B3
20 | 96.4% | B4
21 | 32.9% | B5
22 | 16.7% | B6
23 | 19.5% | B7
24 | 28.1% | B8

target: T2, human CD8α on primary CD8+ T cells; experiment: flow cytometry on PBMC, 2 µg/mL mAb, positive cells among EM CD8 T cells, Donor 1
Description: as §1

Row | Binding+ in EM (%) | Binder
25 | 86.2% | B1
26 | 82.8% | B2
27 | 88.5% | B3
28 | 69.5% | B4
29 | 65.1% | B5
30 | 50.4% | B6
31 | 56.5% | B7
32 | 70.5% | B8

target: T2, human CD8α on primary CD8+ T cells; experiment: flow cytometry on PBMC, 2 µg/mL mAb, positive cells among EM CD8 T cells, Donor 2
Description: as §1

Row | Binding+ in EM (%) | Binder
33 | 89.1% | B1
34 | 87.4% | B2
35 | 91.5% | B3
36 | 77.9% | B4
37 | 72.8% | B5
38 | 50.3% | B6
39 | 60.6% | B7
40 | 75.9% | B8

target: T2, human CD8α on primary CD8+ T cells; experiment: flow cytometry on PBMC, 2 µg/mL mAb, positive cells among EMRA CD8 T cells, Donor 1
Description: as §1

Row | Binding+ in EMRA (%) | Binder
41 | 90.3% | B1
42 | 87.9% | B2
43 | 91% | B3
44 | 81.3% | B4
45 | 67.6% | B5
46 | 60.6% | B6
47 | 63.3% | B7
48 | 72% | B8

target: T2, human CD8α on primary CD8+ T cells; experiment: flow cytometry on PBMC, 2 µg/mL mAb, positive cells among EMRA CD8 T cells, Donor 2
Description: as §1

Row | Binding+ in EMRA (%) | Binder
49 | 97.3% | B1
50 | 97.1% | B2
51 | 97.8% | B3
52 | 92.8% | B4
53 | 7.67% | B5
54 | 4.25% | B6
55 | 5.38% | B7
56 | 8.76% | B8

target: T3, soluble CAR extracellular domain (ECD) containing scFv and CD8α hinge (UniProt P01732 138-182, biotinylated); experiment: BLI (OctetRed384), biotinylated CAR ECD on streptavidin tips; the cell stands under the head 'KD (M)' (heads shifted)
T3 construct: domain: CD8α hinge; also called soluble CAR ECD; CAR ECD
T3 sequence (P01732 138-182): as the sequence (P01732 138-182) above
Description: (§2) To determine the binding affinity and kinetics of mAbs to CD8α hinge, soluble CAR extracellular domains (ECD) containing scFv and CD8α hinge was generated for Bio-layer interferometry (BLI) analysis using OctetRed384 (Sartorius). The CAR ECD was biotinylated and loaded to streptavidin sensor tip. Then mAbs were associated to the sensor and followed by disassociation in the assay buffer. Data was analyzed by Octet software (Sartorius).

Row | koff | Binder
57 | 0.000128 s⁻¹ | B4
58 | 0.00135 s⁻¹ | B5

target: T3, soluble CAR extracellular domain (ECD) …; experiment: BLI (OctetRed384), biotinylated CAR ECD on streptavidin tips; the cell stands under the head 'kd (1/s)' (heads shifted)
Description: as §2

Row | kon | Binder
59 | 68000 M⁻¹ s⁻¹ | B4
60 | 241000 M⁻¹ s⁻¹ | B5

target: T3, soluble CAR extracellular domain (ECD) …; experiment: BLI (OctetRed384), GC5W48-Btn (biotinylated CAR ECD) loaded on streptavidin tip, mAb in solution; first of two table rows
Description: as §2

Row | Kd | kon | Binder
61 | 2.01 nM | 89100 M⁻¹ s⁻¹ | B4
62 | 4.81 nM | 237000 M⁻¹ s⁻¹ | B5

target: T3, soluble CAR extracellular domain (ECD) …; experiment: BLI (OctetRed384), GC5W48-Btn (biotinylated CAR ECD) loaded on streptavidin tip, mAb in solution; second of two table rows
Description: as §2

Row | Kd | kon | Binder
63 | 1.65 nM | 46800 M⁻¹ s⁻¹ | B4
64 | 6.35 nM | 245000 M⁻¹ s⁻¹ | B5

target: T3, soluble CAR extracellular domain (ECD) …; experiment: BLI (OctetRed384), GC5W48-Btn (biotinylated CAR ECD) loaded on streptavidin tip, mAb in solution; first of two table rows; column head 'kdis (1/s)'
Description: as §2

Row | koff | Binder
65 | 0.000179 s⁻¹ | B4
66 | 0.00114 s⁻¹ | B5

target: T3, soluble CAR extracellular domain (ECD) …; experiment: BLI (OctetRed384), GC5W48-Btn (biotinylated CAR ECD) loaded on streptavidin tip, mAb in solution; second of two table rows; column head 'kdis (1/s)'
Description: as §2

Row | koff | Binder
67 | 7.72e-05 s⁻¹ | B4
68 | 0.00156 s⁻¹ | B5

target: T3, soluble CAR extracellular domain (ECD) …; experiment: BLI (OctetRed384), GC5W48-Btn loaded on streptavidin tip; row 'average'; the sheet puts this number under 'kdis (1/s)', Table 14 of the text under 'KD (M)'
Description: as §2

Row | koff | Binder
69 | 0.000128 s⁻¹ | B4
70 | 0.00135 s⁻¹ | B5

target: T3, soluble CAR extracellular domain (ECD) …; experiment: BLI (OctetRed384), biotinylated CAR ECD on streptavidin tips; the cell stands under the head 'ka (1/Ms)' but the text gives 1.83 nM as the affinity (heads shifted)
Description: as §2

Row | Kd | Binder
71 | 1.83 nM | B4

target: T3, soluble CAR extracellular domain (ECD) …; experiment: BLI (OctetRed384), biotinylated CAR ECD on streptavidin tips; the cell stands under the head 'ka (1/Ms)' but the text gives 5.58 nM as the affinity (heads shifted)
Description: as §2

Row | Kd | Binder
72 | 5.58 nM | B5

target: T3, soluble CAR extracellular domain (ECD) …; experiment: BLI (OctetRed384), GC5W48-Btn loaded on streptavidin tip; row 'average'; the sheet puts this number under 'kon (1/Ms)', Table 14 of the text under 'kd (1/s)'
Description: as §2

Row | kon | Binder
73 | 68000 M⁻¹ s⁻¹ | B4
74 | 241000 M⁻¹ s⁻¹ | B5
